In general, koff refers to the first-order rate constant of dissociation. Higher therefore signals a short-lived complex. What is called kon is a measure of how fast the partners come together. A higher kon goes with faster complex formation.

For assay [1], the target named is human EGFR (human) (UniProt P00533). Description: kinetics table of FIG. 2 (SPR is told in paragraph 123 for the other clones of the table); column head 10^-4 (s-1).
Assay [2] shares this target. Description: kinetics table of FIG. 2 (SPR is told in paragraph 123 for the other clones of the table); column head 10^5 (s-1M-1).

B1: ER-2b (antibody, part only; not given: common light chain, V domains shown, part only)
VH: EVQLVESGGGLVQPGGSLRLSCAASGFNIYYAAMHWVRQAPGKGLEWVAFISPYYSYTSYADSVKGRFTISADTSKNTAYLQMNSLRAEDTAVYYCARYFHSSWYESSSPRAYYPGMDYWGQGTLVTVSS
In the case of B1, the koff in the assay with human EGFR (human) [1] was 5e-05 s⁻¹. In the assay with human EGFR (human) [2], this molecule came in with a kon of 280000 M⁻¹ s⁻¹.

The values above are taken from patent US20240383988A1.
